Test results from the supplement of paper PMC9876800.

System: peptide library, one residue held at a place counted from the S/T acceptor
Assay: relative phosphorylation of the sub-library (ratio to the mean residue at this position); human; higher = residue favoured
Procedure, shortened: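 Purified recombinant kinases, either human or orthologue constructs, were incubated in 384-well plates with biotinylated degenerate peptide sub-libraries. Each sub-library fixed one residue at one position around a central Ser/Thr. Peptides at 50 μM and 50 μM ATP spiked with γ-32P-ATP were used for 90 min under kinase-specific conditions, and spots on streptavidin membranes were phosphorimaged and quantified by densitometry. Relative sub-library phosphorylation is expressed as a ratio to the mean residue at that position.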

Sequence of SIK3, construct: aa1-307 (Q9Y2K2 1-307, looked up): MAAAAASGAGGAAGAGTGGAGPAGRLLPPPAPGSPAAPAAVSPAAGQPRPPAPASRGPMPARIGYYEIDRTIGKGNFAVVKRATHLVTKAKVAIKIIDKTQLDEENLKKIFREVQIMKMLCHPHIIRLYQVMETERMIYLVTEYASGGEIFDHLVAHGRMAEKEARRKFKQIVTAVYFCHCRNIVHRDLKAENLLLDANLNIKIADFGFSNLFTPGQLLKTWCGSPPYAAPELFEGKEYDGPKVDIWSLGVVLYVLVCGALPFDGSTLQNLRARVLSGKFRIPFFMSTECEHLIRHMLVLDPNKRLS

“SIK3, construct: aa1-307 (from UniProt Q9Y2K2)” showed a relative phosphorylation (A fixed, at +1) of 0.723, a relative phosphorylation (A fixed, at +2) of 1.19 and a relative phosphorylation (A fixed, at +3) of 0.654. The relative phosphorylation (A fixed, at +4) was 0.581, the relative phosphorylation (A fixed, at -1) was 1.02 and the relative phosphorylation (A fixed, at -2) was 1.77. The relative phosphorylation (A fixed, at -3) was 0.786, the relative phosphorylation (A fixed, at -4) was 1.12 and the relative phosphorylation (A fixed, at -5) was 1.32. For the same substance, the relative phosphorylation (D fixed, at +1) was 0.537, the relative phosphorylation (D fixed, at +2) was 0.686 and the relative phosphorylation (D fixed, at +3) was 2.07. For the same substance, the relative phosphorylation (D fixed, at +4) was 0.508, the relative phosphorylation (D fixed, at -1) was 0.631 and the relative phosphorylation (D fixed, at -2) was 0.339. For the same substance, the relative phosphorylation (D fixed, at -3) was 0.328, the relative phosphorylation (D fixed, at -4) was 0.773 and the relative phosphorylation (D fixed, at -5) was 0.8. It also gave a relative phosphorylation (E fixed, at +1) of 0.747, a relative phosphorylation (E fixed, at +2) of 0.583 and a relative phosphorylation (E fixed, at +3) of 0.643. For the same substance, the relative phosphorylation (E fixed, at +4) was 0.374, the relative phosphorylation (E fixed, at -1) was 0.495 and the relative phosphorylation (E fixed, at -2) was 0.272. For the same substance, the relative phosphorylation (E fixed, at -3) was 0.353, the relative phosphorylation (E fixed, at -4) was 0.768 and the relative phosphorylation (E fixed, at -5) was 0.692. The relative phosphorylation (F fixed, at +1) was 0.727, the relative phosphorylation (F fixed, at +2) was 0.687 and the relative phosphorylation (F fixed, at +3) was 0.914. The relative phosphorylation (F fixed, at +4) was 0.724, the relative phosphorylation (F fixed, at -1) was 0.497 and the relative phosphorylation (F fixed, at -2) was 1.06. It also gave a relative phosphorylation (F fixed, at -3) of 0.698, a relative phosphorylation (F fixed, at -4) of 0.867 and a relative phosphorylation (F fixed, at -5) of 1.06. It also gave a relative phosphorylation (G fixed, at +1) of 0.646, a relative phosphorylation (G fixed, at +2) of 0.775 and a relative phosphorylation (G fixed, at +3) of 0.505. The relative phosphorylation (G fixed, at +4) was 0.546, the relative phosphorylation (G fixed, at -1) was 2.72 and the relative phosphorylation (G fixed, at -2) was 1.28. It also gave a relative phosphorylation (G fixed, at -3) of 0.684, a relative phosphorylation (G fixed, at -4) of 1.36 and a relative phosphorylation (G fixed, at -5) of 1.16. For the same substance, the relative phosphorylation (H fixed, at +1) was 0.747, the relative phosphorylation (H fixed, at +2) was 1.14 and the relative phosphorylation (H fixed, at +3) was 1.36. For the same substance, the relative phosphorylation (H fixed, at +4) was 0.678, the relative phosphorylation (H fixed, at -1) was 0.857 and the relative phosphorylation (H fixed, at -2) was 1.3. It also gave a relative phosphorylation (H fixed, at -3) of 1.11, a relative phosphorylation (H fixed, at -4) of 1.19 and a relative phosphorylation (H fixed, at -5) of 0.856. The relative phosphorylation (I fixed, at +1) was 1.12, the relative phosphorylation (I fixed, at +2) was 0.923 and the relative phosphorylation (I fixed, at +3) was 0.555. The relative phosphorylation (I fixed, at +4) was 2.59, the relative phosphorylation (I fixed, at -1) was 0.364 and the relative phosphorylation (I fixed, at -2) was 0.507. For the same substance, the relative phosphorylation (I fixed, at -3) was 0.399, the relative phosphorylation (I fixed, at -4) was 0.637 and the relative phosphorylation (I fixed, at -5) was 0.861. The relative phosphorylation (K fixed, at +1) was 0.88, the relative phosphorylation (K fixed, at +2) was 0.578 and the relative phosphorylation (K fixed, at +3) was 0.728. For the same substance, the relative phosphorylation (K fixed, at +4) was 0.56, the relative phosphorylation (K fixed, at -1) was 1.77 and the relative phosphorylation (K fixed, at -2) was 1.17. For the same substance, the relative phosphorylation (K fixed, at -3) was 2.13, the relative phosphorylation (K fixed, at -4) was 1.21 and the relative phosphorylation (K fixed, at -5) was 1.02. It also gave a relative phosphorylation (L fixed, at +1) of 1.21, a relative phosphorylation (L fixed, at +2) of 0.987 and a relative phosphorylation (L fixed, at +3) of 0.824. It also gave a relative phosphorylation (L fixed, at +4) of 4.53, a relative phosphorylation (L fixed, at -1) of 0.691 and a relative phosphorylation (L fixed, at -2) of 0.364. For the same substance, the relative phosphorylation (L fixed, at -3) was 0.497, the relative phosphorylation (L fixed, at -4) was 0.662 and the relative phosphorylation (L fixed, at -5) was 1.58. For the same substance, the relative phosphorylation (M fixed, at +1) was 2.13, the relative phosphorylation (M fixed, at +2) was 1.08 and the relative phosphorylation (M fixed, at +3) was 0.759. The relative phosphorylation (M fixed, at +4) was 1.55, the relative phosphorylation (M fixed, at -1) was 0.781 and the relative phosphorylation (M fixed, at -2) was 0.591. It also gave a relative phosphorylation (M fixed, at -3) of 0.649, a relative phosphorylation (M fixed, at -4) of 0.991 and a relative phosphorylation (M fixed, at -5) of 1.2. The relative phosphorylation (N fixed, at +1) was 1.29, the relative phosphorylation (N fixed, at +2) was 1.4 and the relative phosphorylation (N fixed, at +3) was 3.64. The relative phosphorylation (N fixed, at +4) was 0.597, the relative phosphorylation (N fixed, at -1) was 1.25 and the relative phosphorylation (N fixed, at -2) was 0.65. For the same substance, the relative phosphorylation (N fixed, at -3) was 0.57, the relative phosphorylation (N fixed, at -4) was 0.895 and the relative phosphorylation (N fixed, at -5) was 0.733. The relative phosphorylation (P fixed, at +1) was 0.373, the relative phosphorylation (P fixed, at +2) was 1.17 and the relative phosphorylation (P fixed, at +3) was 0.359. The relative phosphorylation (P fixed, at +4) was 0.637, the relative phosphorylation (P fixed, at -1) was 1.53 and the relative phosphorylation (P fixed, at -2) was 0.538. It also gave a relative phosphorylation (P fixed, at -3) of 0.939, a relative phosphorylation (P fixed, at -4) of 1.16 and a relative phosphorylation (P fixed, at -5) of 0.954. It also gave a relative phosphorylation (Q fixed, at +1) of 1.84, a relative phosphorylation (Q fixed, at +2) of 0.988 and a relative phosphorylation (Q fixed, at +3) of 0.853. It also gave a relative phosphorylation (Q fixed, at +4) of 0.481, a relative phosphorylation (Q fixed, at -1) of 1.29 and a relative phosphorylation (Q fixed, at -2) of 0.526. For the same substance, the relative phosphorylation (Q fixed, at -3) was 0.704, the relative phosphorylation (Q fixed, at -4) was 0.8 and the relative phosphorylation (Q fixed, at -5) was 0.725. It also gave a relative phosphorylation (R fixed, at +1) of 1.1, a relative phosphorylation (R fixed, at +2) of 0.956 and a relative phosphorylation (R fixed, at +3) of 0.688. It also gave a relative phosphorylation (R fixed, at +4) of 0.459, a relative phosphorylation (R fixed, at -1) of 1.4 and a relative phosphorylation (R fixed, at -2) of 1.45. For the same substance, the relative phosphorylation (R fixed, at -3) was 4.8, the relative phosphorylation (R fixed, at -4) was 1.73 and the relative phosphorylation (R fixed, at -5) was 1.5. For the same substance, the relative phosphorylation (V fixed, at +1) was 1.28, the relative phosphorylation (V fixed, at +2) was 0.926 and the relative phosphorylation (V fixed, at +3) was 0.488. For the same substance, the relative phosphorylation (V fixed, at +4) was 1.18, the relative phosphorylation (V fixed, at -1) was 0.463 and the relative phosphorylation (V fixed, at -2) was 0.645. The relative phosphorylation (V fixed, at -3) was 0.427, the relative phosphorylation (V fixed, at -4) was 0.645 and the relative phosphorylation (V fixed, at -5) was 0.695. The relative phosphorylation (W fixed, at +1) was 0.795, the relative phosphorylation (W fixed, at +2) was 1.97 and the relative phosphorylation (W fixed, at +3) was 0.851. The relative phosphorylation (W fixed, at +4) was 0.581, the relative phosphorylation (W fixed, at -1) was 0.486 and the relative phosphorylation (W fixed, at -2) was 2.92. It also gave a relative phosphorylation (W fixed, at -3) of 1.26, a relative phosphorylation (W fixed, at -4) of 1.21 and a relative phosphorylation (W fixed, at -5) of 0.973. It also gave a relative phosphorylation (Y fixed, at +1) of 0.877, a relative phosphorylation (Y fixed, at +2) of 0.961 and a relative phosphorylation (Y fixed, at +3) of 1.1. It also gave a relative phosphorylation (Y fixed, at +4) of 0.42, a relative phosphorylation (Y fixed, at -1) of 0.756 and a relative phosphorylation (Y fixed, at -2) of 1.62. The relative phosphorylation (Y fixed, at -3) was 0.658, the relative phosphorylation (Y fixed, at -4) was 0.987 and the relative phosphorylation (Y fixed, at -5) was 0.868. For the same substance, the relative phosphorylation (pThr fixed, at +1) was 0.992, the relative phosphorylation (pThr fixed, at +2) was 0.79 and the relative phosphorylation (pThr fixed, at +3) was 0.348. For the same substance, the relative phosphorylation (pThr fixed, at +4) was 0.35, the relative phosphorylation (pThr fixed, at -1) was 0.294 and the relative phosphorylation (pThr fixed, at -2) was 0.444. For the same substance, the relative phosphorylation (pThr fixed, at -3) was 0.527, the relative phosphorylation (pThr fixed, at -4) was 0.647 and the relative phosphorylation (pThr fixed, at -5) was 0.667. It also gave a relative phosphorylation (pTyr fixed, at +1) of 0.487, a relative phosphorylation (pTyr fixed, at +2) of 0.297 and a relative phosphorylation (pTyr fixed, at +3) of 0.335. The relative phosphorylation (pTyr fixed, at +4) was 0.324, the relative phosphorylation (pTyr fixed, at -1) was 0.589 and the relative phosphorylation (pTyr fixed, at -2) was 0.442. For the same substance, the relative phosphorylation (pTyr fixed, at -3) was 0.522, the relative phosphorylation (pTyr fixed, at -4) was 0.627 and the relative phosphorylation (pTyr fixed, at -5) was 0.782.
